Results published in the supplement of paper PMC10567573.

B1: YPEL3 (parent)
chain: SKPKTFQAYLDDCHRRYSCAHCRA

Variants of: B1
Test: protein stability index of a GFP-peptide fusion (GPS, HEK-293T) (PSI 1-6); higher = more stable
Conditions: c terminus: a fixed tail appended
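Note: lentivirally expressed fusions sorted by FACS into six bins by GFP to DsRed ratio, PSI derived from sequencing read proportions per bin multiplied by bin number.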

Variant	protein stability index
SKPKTFQAYLDDCNRRYSCAHCRA [H14N]	2.19
SKNKTFQAYLDDCHRRYSCAHCRA [P3N]	2.26
SKPKTFQAYLDDCHRRYSCAWCRA [H21W]	1.65
SKPKTFQAYLDDCHRRYSTAHCRA [C19T]	2.44
SKPKTFQAYLDHCHRRYSCAHCRA [D12H]	2.35
SKGKTFQAYLDDCHRRYSCAHCRA [P3G]	2.13
SKPKTFQAYLDMCHRRYSCAHCRA [D12M]	2.69
SKPKTFQAYLDDCHLRYSCAHCRA [R15L]	2.01
SKPKTFQAYLDDCHYRYSCAHCRA [R15Y]	1.56
SKPKTFQAYLFDCHRRYSCAHCRA [D11F]	3.03
SKPPTFQAYLDDCHRRYSCAHCRA [K4P]	1.9
SKPKTFGAYLDDCHRRYSCAHCRA [Q7G]	2.22
SKPKTFQAYLDDCHRRNSCAHCRA [Y17N]	1.8
SKPKPFQAYLDDCHRRYSCAHCRA [T5P]	2.43
SWPKTFQAYLDDCHRRYSCAHCRA [K2W]	2.58
SKPKTFQAYLDDCHRGYSCAHCRA [R16G]	1.33
SKPKTFQAYLDDCHRRYSCAPCRA [H21P]	1.9
SKPKTFQAYLDDCHREYSCAHCRA [R16E]	3.04
SKPKTFQAYLDDCHRRYSCAHCRN [A24N]	2
SKPKTFRAYLDDCHRRYSCAHCRA [Q7R]	2.02
SKKKTFQAYLDDCHRRYSCAHCRA [P3K]	2.29
WKPKTFQAYLDDCHRRYSCAHCRA [S1W]	1.66
SKPKTFQAYLDDCHRRYSCAHCVA [R23V]	3.34
SKPKTFQAYLDDCYRRYSCAHCRA [H14Y]	1.56

Variant	protein stability index
SKPKTFQAYLDDCHRRYSCAFCRA [H21F]	1.52
SKPKTFQAYLDDCHRRYSCASCRA [H21S]	2.19
SKPKTFQAYLDDCHRRYSCYHCRA [A20Y]	2.16
SKPYTFQAYLDDCHRRYSCAHCRA [K4Y]	2.04
SKPKTFQAYLDDCHRHYSCAHCRA [R16H]	2.3
SKPKTFQAYLDYCHRRYSCAHCRA [D12Y]	2.28
SKPKTFQAYLDDCHRRYSCAHCKA [R23K]	2.03
SKPKTFQAYLDDCHRYYSCAHCRA [R16Y]	1.83
SEPKTFQAYLDDCHRRYSCAHCRA [K2E]	1.63
SKPKTFQAYLDDCHGRYSCAHCRA [R15G]	1.88
SKPKTFQAYLDDCHRFYSCAHCRA [R16F]	1.76
SKPKTLQAYLDDCHRRYSCAHCRA [F6L]	2.27
SKPKTFQAYLDDCHRRYSCAHCRY [A24Y]	2.86
SKPKTFQAYLDDCERRYSCAHCRA [H14E]	1.56
SKPKTFQAYLDDCHKRYSCAHCRA [R15K]	2.15
SKPKTFQAYLHDCHRRYSCAHCRA [D11H]	2.37
SKPKTFQAYLDDCHRRYSCAHWRA [C22W]	1.77
SKPKTFQGYLDDCHRRYSCAHCRA [A8G]	1.91
NKPKTFQAYLDDCHRRYSCAHCRA [S1N]	2.04
SKPKTFQAYLDDCHRRYSCAHCMA [R23M]	2
SKPKTFQAYDDDCHRRYSCAHCRA [L10D]	2.53
SKPKTFPAYLDDCHRRYSCAHCRA [Q7P]	2.8
SKPKTFQAYLDDCHRRYSCAHCDA [R23D]	2.18
SKPKTFQAYLDDCHRRYWCAHCRA [S18W]	1.52

Variant	protein stability index
SKPKTFQAYLDDCHRRYSCAHNRA [C22N]	2.45
SKPKTFQAYLDDCHRRYSLAHCRA [C19L]	2.08
SKPKTFQAYLDDCARRYSCAHCRA [H14A]	2.03
SKPITFQAYLDDCHRRYSCAHCRA [K4I]	1.6
SKPKTFQAYLDDCHRRYSCAHCAA [R23A]	3.07
SKPKTFQAYLMDCHRRYSCAHCRA [D11M]	2.47
SKPKTFQAYLDDCHRRYSCARCRA [H21R]	3.32
SKPKTFQAYLDDCHRRYSCAHCPA [R23P]	2.11
SKPKTFTAYLDDCHRRYSCAHCRA [Q7T]	1.93
SKPKTFQFYLDDCHRRYSCAHCRA [A8F]	1.78
SKPKTFQTYLDDCHRRYSCAHCRA [A8T]	2.1
SKPKTFQAYLDDCWRRYSCAHCRA [H14W]	3.12
SKPKTAQAYLDDCHRRYSCAHCRA [F6A]	2.95
SKPKTFQAYLDDCHRRYSCIHCRA [A20I]	1.89
SKPKTFQAYLDDCHRRYTCAHCRA [S18T]	2.37
SKPKTFQAMLDDCHRRYSCAHCRA [Y9M]	1.89
SKPKTFQAYLDDCHRRYSCQHCRA [A20Q]	1.71
SKPKTYQAYLDDCHRRYSCAHCRA [F6Y]	2.2
SKPKTFQAYLDNCHRRYSCAHCRA [D12N]	2.12
SKPKTFQANLDDCHRRYSCAHCRA [Y9N]	2.17
SKPKTFQAYLDDCHRRYSHAHCRA [C19H]	2.96
SKPKTFQAYLDDKHRRYSCAHCRA [C13K]	2.69
SKPNTFQAYLDDCHRRYSCAHCRA [K4N]	1.87
SKPKTFQAYLDVCHRRYSCAHCRA [D12V]	1.96

Variant	protein stability index
SKPKTFQAYLDDQHRRYSCAHCRA [C13Q]	2.48
SKPMTFQAYLDDCHRRYSCAHCRA [K4M]	2.28
SKPKTFQEYLDDCHRRYSCAHCRA [A8E]	1.92
SKPKTFQAYLDDCHRRYSKAHCRA [C19K]	2.64
SKPKTHQAYLDDCHRRYSCAHCRA [F6H]	2.71
SKPKTFQRYLDDCHRRYSCAHCRA [A8R]	1.88
SKPKTFQAYFDDCHRRYSCAHCRA [L10F]	1.99
SKCKTFQAYLDDCHRRYSCAHCRA [P3C]	2.6
SKPKTFQAYLDDCHRRYSCAHCLA [R23L]	2.37
SKPKTFQAYLDICHRRYSCAHCRA [D12I]	2.22
SKPKCFQAYLDDCHRRYSCAHCRA [T5C]	2.33
SKPKTFQAYCDDCHRRYSCAHCRA [L10C]	3.6
SKPKTFQAYLDDIHRRYSCAHCRA [C13I]	1.94
SKPKTFQNYLDDCHRRYSCAHCRA [A8N]	2.49
SKPKTFQAYLDWCHRRYSCAHCRA [D12W]	1.67
SKPKTFQAYLDDMHRRYSCAHCRA [C13M]	2.79
HKPKTFQAYLDDCHRRYSCAHCRA [S1H]	2.07
SKPDTFQAYLDDCHRRYSCAHCRA [K4D]	1.86
SKPKTFQAYLDDCHRRSSCAHCRA [Y17S]	1.89
SKPKTFQAYQDDCHRRYSCAHCRA [L10Q]	2.48
SKPKTFQAYLDDCHRRYSCAHCRG [A24G]	2.32
SKPKTNQAYLDDCHRRYSCAHCRA [F6N]	3.15
